According to US20230391872A1 (ANAPTYSBIO, published 2023):

How the values were obtained:
[1] = target: T1, human BTLA on cells (stably transfected 293c18 cells; human peripheral blood T and B cells) (human, UniProt Q7Z6A9 31-289); assay: flow cytometry (MFI DyL650) on gated CD20+ B cells of human PBMC, DyLight 650-labelled antibody, three-parameter fit [right panel (Naive B cells]
T1 construct: whole, on cells; the cells are named under assay; also called cell surface BTLA; full-length human BTLA
Procedure: (§1) Human peripheral blood mononuclear cells (PBMCs) were isolated by Histopaque (Sigma-Aldrich) density-gradient centrifugation of normal donor blood obtained from the San Diego Blood Bank (San Diego, CA). PBMCs were washed and incubated at 2×10⁷ cells/ml in FACS buffer (PBS, 1% BSA, 0.02% sodium azide) with Human BD Fc Block (2.5 μg/1×10⁶ cells, BD Biosciences) and LIVE/DEAD® Fixable Yellow Dead Cell Stain (30 μl, ThermoFisher Scientific) for 10 minutes on ice. Cells were washed once in FACS buffer, resuspended in FACS buffer at 1×10⁷ cells/ml and the following phenotyping antibodies added: Alexa Fluor 488-anti-human CD3E clone SK7, Brilliant Violet 421-anti-human CD4 clone OKT4, Brilliant Violet 785-anti-human CD8 clone SK1, and Brilliant Violet 570-anti-human CD20 clone 2H7 (50 μl each; all from BioLegend, Inc.). […] Samples were washed twice in FACS buffer, resuspended in 150 μl/well FACS buffer, and analyzed for fluorescence on a NovoCyte Flow Cytometer (ACEA Biosciences, Inc.). Data were analyzed using NovoExpress Software (ACEA Biosciences, Inc.). Median fluorescence intensities of anti-BTLA or isotype staining on gated CD4⁺ T cells (FIG. 4), CD8⁺ T cells (FIG. 4), or CD20⁺ B cells (FIG. 4) were graphed and curves fit with log(agonist) vs. response (three parameters) least squares fit for EC₅₀ calculation in GraphPad Prism (GraphPad Software, Inc.).

[2] = target: T1, human BTLA on cells (stably transfected …); assay: flow cytometry (MFI DyL650) on gated CD4+ T cells of human PBMC, DyLight 650-labelled antibody, three-parameter fit [left panel (Naive CD4+ T cells]
Procedure: as §1

[3] = target: T1, human BTLA on cells (stably transfected …); assay: flow cytometry (MFI DyL650) on gated CD8+ T cells of human PBMC, DyLight 650-labelled antibody, three-parameter fit [middle panel (Naive CD8+ T cells]
Procedure: as §1

[4] = target: T2, human BTLA ECD-his (monomeric human BTLA-his) (human, UniProt Q7Z6A9 31-157); assay: SPR, Biacore T200, antibody captured on anti-human IgG, monomeric human BTLA-his as analyte, 25 °C, 1:1 model; 6G3 IgG4 (APE10840.05) captured on the chip; human BTLA-his analyte
T2 construct: extracellular domain; also called human BTLA extracellular domain
T2 sequence (looked up): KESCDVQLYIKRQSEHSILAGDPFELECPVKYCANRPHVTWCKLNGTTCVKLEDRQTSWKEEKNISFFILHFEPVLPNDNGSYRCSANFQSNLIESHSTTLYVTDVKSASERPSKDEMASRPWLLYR
Procedure: Surface plasmon resonance (SPR) analyses were carried out using a Biacore T200 (GE Healthcare Life Sciences). Kinetic constants were determined using a 1:1 binding model in the Biacore T200 Evaluation Software to calculate on- and off-rates (kₐ and kd, respectively), and dissociation constants as a measure of overall affinity (KD). Anti-human IgG (GE Healthcare Life Sciences) was immobilized on a CMS chip using EDC-activated amine coupling chemistry (420 seconds contact at a flow rate of 10 μl/min). Antibodies (APE10585.04 6G3 IgG1 and APE10840.05 6G3 IgG4), each at 0.5 μg/m1) were captured in a 60 second contact with the flow cell using a flow rate of 10 μl/min. Monomeric human BTLA-his or cynomolgus monkey BTLA-his at 60 nM, 20 nM, 6.7 nM and 2.2 nM concentrations was flowed over captured antibody (480 seconds association, 1800 seconds dissociation). Runs were at 25° C. and used buffer containing 10 mM HEPES, pH 7.6, 150 mM NaCl, 3 mM EDTA, 0.05% polysorbate 20 (HBS-EP+, pH 7.6; Teknova) for the mobile phase and all dilutions. At the end of each cycle, bound antigen was removed by regeneration with two successive exposures (60 seconds and 90 seconds) to 3 M MgCl2 (30 μl/min). Sensorgrams and binding constants corresponding to the experiment are shown in FIG. 1 (human BTLA) and FIG. 1 (cynomolgus monkey BTLA). […]

EC50 [1]: 0.54 nM
EC50 [2]: 2.44 nM
EC50 [3]: 3.23 nM
Kd [4]: ~5 nM
B1: 6G3 IgG4 anti-BTLA antibody (APE10840 / APE12839 / APE13308) (antibody, V domains shown)
VH: QVQLVQSGAEVKKPGSSVKVSCKASGYVFSTSWMNWVRQAPGQGLEWMGRIYPGDADTNYVGKFKGRVTITADKSTTTAYMELSSLRSEDTAVYFCAKSGTFNFGNYRWYFDVWGKGTTVTVSS
VL: AIQLTQSPSSLSASVGDRVTITCRVSENIYSHLAWYQQKPGKAPKLLIYAATNLALGVPSRFSGSGSGTDYTLTISSLQPEDFATYYCQLFWGPPLTFGGGTKVEIKR
notes: Humanized antibody from a mouse hybridoma, tested as human IgG4 (detected with anti-human kappa); Some assays used labelled lots (DyLight 650, AF647, biotin, DyL488); also called 6G3 antibody; APE10840.03
